The text below walks through data of article PMC10670289, “Characterization and Molecular Dynamics Simulation of a Lipase Capable of Improving the Functional Characteristics of an Egg-Yolk-Contaminated Liquid Egg White” (Foods, 2023).

What all share (test): purified protein
Holding throughout (assay type): biochemical, Bacillus subtilis
Common to all, as to conditions: 30 °C, pH 9.0

Substrate in data set [1]: CCCCCCCCCCCCCCCC(=O)Oc1ccc([N+](=O)[O-])cc1
Substrate in data set [2]: CCCCCCCCCCCCCCCCCC(=O)Oc1ccc([N+](=O)[O-])cc1
Substrate in data set [3]: CCCCCCCCCCCCCC(=O)Oc1ccc([N+](=O)[O-])cc1
Substrate in data set [4]: CCCCCC(=O)Oc1ccc([N+](=O)[O-])cc1
Substrate in data set [5]: CCCCCCCCCC(=O)Oc1ccc([N+](=O)[O-])cc1
Substrate in data set [6]: CCCCCCCCCCCC(=O)Oc1ccc([N+](=O)[O-])cc1
Substrate in data set [7]: CCCCCCCC(=O)Oc1ccc([N+](=O)[O-])cc1

A word on the Km: it is the concentration of substrate that gives half-maximal velocity. For orientation: Vmax means the rate approached at saturating substrate.

B1: Lip-IM (Bacillus subtilis subsp. subtilis str. 168) (protein)
chain: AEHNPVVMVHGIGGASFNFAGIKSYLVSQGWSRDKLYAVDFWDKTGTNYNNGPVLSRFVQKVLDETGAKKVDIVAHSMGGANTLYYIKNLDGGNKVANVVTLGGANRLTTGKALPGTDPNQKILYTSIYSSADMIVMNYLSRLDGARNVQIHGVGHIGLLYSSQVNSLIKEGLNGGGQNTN
notes: 22 kDa by SDS-PAGE
Consider B1, for which the Km is recorded as 9.26 ± 0.09 mM in “purified protein [1]”; 6.26 ± 0.07 mM in the data set “purified protein [2]”; 5.12 ± 0.09 mM in “purified protein [3]”; 3.92 ± 0.06 mM in the data set “purified protein [4]”; 5.23 ± 0.04 mM in the data set “purified protein [5]”; 5.96 ± 0.08 mM in the data set “purified protein [6]”. Further, in the data set “purified protein [7]”, the Km came out at 4.21 ± 0.09 mM. Moreover, the Vmax stood at 150 µM/min in “purified protein [1]”; 292 µM/min in “purified protein [2]”; 214 µM/min in the data set “purified protein [3]”; 233 µM/min in “purified protein [4]”; 184 µM/min in “purified protein [5]”; 204 µM/min in the data set “purified protein [6]”. Besides, the maximum rate (Vmax) in the data set “purified protein [7]” is 236 µM/min.
